Legend:
aorsin = biological target: T1, aorsin (Aspergillus oryzae, UniProt Q8NK92); assay: PE001 protease stability, SDS-PAGE after protease treatment; assay type: biochemical
T1 sequence (Q8NK92 216-652): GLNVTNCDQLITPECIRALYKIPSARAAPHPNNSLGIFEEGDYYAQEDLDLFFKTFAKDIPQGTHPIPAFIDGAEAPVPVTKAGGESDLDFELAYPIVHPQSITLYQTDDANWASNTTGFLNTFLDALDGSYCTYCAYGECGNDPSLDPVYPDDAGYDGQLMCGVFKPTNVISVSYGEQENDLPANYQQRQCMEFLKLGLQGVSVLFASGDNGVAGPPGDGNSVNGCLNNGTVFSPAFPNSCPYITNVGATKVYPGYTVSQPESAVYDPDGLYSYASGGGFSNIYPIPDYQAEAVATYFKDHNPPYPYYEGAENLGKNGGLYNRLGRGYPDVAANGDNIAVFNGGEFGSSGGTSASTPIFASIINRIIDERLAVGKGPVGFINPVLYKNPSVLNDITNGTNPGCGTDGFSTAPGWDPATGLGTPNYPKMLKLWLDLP
Protocol: (§1) 40 μl enzyme solutions (1 mg/ml) in 50 mM sodium acetate buffer, pH 4.5, were mixed with 1/10 volume of 1 mg/ml protease solutions such as aspergillopepsin I described in Biochem J. 1975 April; 147(1):45-53, or the commercially available product from Sigma and aorsin described in Biochemical journal [0264-6021] Ichishima yr: 2003 vol:371 iss:Pt 2 pg:541 and incubated at 4 or 32° C. overnight. As a control experiment, H2O was added to the sample instead of proteases. The samples were loaded on SDS-PAGE to see if the glucoamylases are cleaved by proteases.

aspergillopepsin I = assay: as above; assay type: biochemical; settings: for intact glucoamylase (ca. 70 kDa): aspergillopepsin I
Protocol: as §1

host proteases = assay: Cleavage during cultivation, SDS-PAGE of culture supernatants; design: species or system Aspergillus niger
Protocol: Aspergillus transformant of the variant and the wild type Penicillium oxalicum glucoamylase were cultivated in 6-well MT plates containing 4× diluted YP-2% maltose medium supplemented with 10 mM sodium acetate buffer, pH4.5, at 32° C. for 1 week.
The culture supernatants were loaded on SDS-PAGE.

[1] = Glucoamylase activity (AGU) of variant compared to parent; assay type: biochemical; settings: 37° C., pH 4.3, maltose 100 mM
Protocol: The Novo Glucoamylase Unit (AGU) is defined as the amount of enzyme, which hydrolyzes 1 micromole maltose per minute under the standard conditions 37° C., pH 4.3, substrate: maltose 23.2 mM, buffer: acetate 0.1 M, reaction time 5 minutes.
An autoanalyzer system may be used. Mutarotase is added to the glucose dehydrogenase reagent so that any alpha-D-glucose present is turned into beta-D-glucose. Glucose dehydrogenase reacts specifically with beta-D-glucose in the reaction mentioned above, forming NADH which is determined using a photometer at 340 nm as a measure of the original glucose concentration.
The glucoamylase activity measures as AGU as described above was checked for the purified enzymes of the wild type Penicillium oxalicum and the variant glucoamylase.
The Glucoamylase Unit (AGU) was defined as the amount of enzyme, which hydrolyzes 1 micromole maltose per minute under the standard conditions (37° C., pH 4.3, substrate: maltose 100 mM, buffer: acetate 0.1 M, reaction time 6 minutes).

[2] = Protein thermal unfolding analysis (TSA, Thermal shift assay); assay type: physicochemical
Protocol: Protein thermal unfolding of the T65A and Q327F variants, was monitored using Sypro Orange (In-vitrogen, S-6650) and was performed using a real-time PCR instrument (Applied Biosystems; Step-One-Plus).
In a 96-well plate, 25 microliter micropurified sample in 50 mM Acetate pH4,5 at approx. 100 microgram/ml was mixed (5:1) with Sypro Orange (resulting conc.=5×; stock solution from supplier=5000×). The plate was sealed with an optical PCR seal. The PCR instrument was set at a scan-rate of 76° C. pr. hr, starting at 25° C. and finishing at 96° C.
Protein thermal unfolding of the E501V+Y504T variant, was monitored using Sypro Orange (In-vitrogen, S-6650) and was performed using a real-time PCR instrument (Applied Biosystems; Step-One-Plus).
In a 96-well plate, 15 microliter purified sample in 50 mM Acetate pH4,5 at approx. 50 microgram/ml was mixed (1:1) with Sypro Orange (resulting conc.=5×; stock solution from supplier=5000×) with or without 200 ppm Acarbose (Sigma A8980). The plate was sealed with an optical PCR seal. The PCR instrument was set at a scan-rate of 76 degrees C. pr. hr, starting at 25° C. and finishing at 96° C.
Fluorescence was monitored every 20 seconds using in-built LED blue light for excitation and ROX-filter (610 nm, emission).
Tm-values were calculated as the maximum value of the first derivative (dF/dK) (ref.: Gregory et al; J Biomol Screen 2009 14: 700.)

[3] = Thermostability analysis by Differential Scanning Calorimetry (DSC); assay type: physicochemical
Protocol: . The thermal denaturation temperature, Td (° C.), was taken as the top of the denaturation peak (major endothermic peak) in thermograms (Cp vs. T) obtained after heating enzyme solutions in selected buffers (50 mM Sodium Acetate, pH 4.0 or 4.8) at a constant programmed heating rate of 200K/hr.
Sample- and reference-solutions (approximately 0.3 ml) were loaded into the calorimeter (reference: buffer without enzyme) from storage conditions at 10° C. and thermally pre-equilibrated for 10 minutes at 20° C. prior to DSC scan from 20° C. to 110° C. Denaturation temperatures were determined with an accuracy of approximately +/−1° C.

protease = settings: cited from earlier work

B1: PE001: Penicillium oxalicum glucoamylase SEQ ID NO: 14 with K79V substitution (protein, listed as Penicillium oxalicum)
chain: RPDPKGGNLTPFIHKEGERSLQGILDNLGGRGKKTPGTAAGLFIASPNTENPNYYYTWTRDSALTAKCLIDLFEDSRAVFPIDRKYLETGIRDYKSSQAILQSVSNPSGTLKDGSGLGEPKFEIDLNPFSGAWGRPQRDGPALRATAMITYANYLISHGQKSDVSQVMWPIIANDLAYVGQYWNNTGFDLWEEVDGSSFFTIAVQHRALVEGSQLAKKLGKSCDACDSQPPQILCFLQSFWNGKYITSNINTQASRSGIDLDSVLGSIHTFDPEAACDDATFQPCSARALANHKVYVDSFRSIYKINAGLAEGSAANVGRYPEDVYQGGNPWYLATLGASELLYDALYQWDRLGKLEVSETSLSFFKDFDATVKIGSYSRNSKTYKKLTQSIKSYADGFIQLVQQYTPSNGSLAEQYDRNTAAPLSANDLTWSFASFLTATQRRDAVVPPSWGAKSANKVPTTCSASPVVGTYKAPTATFSSKTKCVPAKDIVPITFYLIENTYYGENVFMSGNITALGNWDAKKGFPLTANLYTQDQNLWFASVEFIPAGTPFEYKYYKVEPNGDITWEKGPNRVFVAPTGCPVQPHSNDVWQF
modifications: mat_peptide (1)..(595) mature Penicillium oxalicum glucoamylase sequence
aorsin; incubation 4° C. overnight
  intact glucoamylase (ca. 70 kDa): 100%
aorsin; incubation 32° C. overnight
  intact glucoamylase (ca. 70 kDa): 100%
Aspergillopepsin I; incubation 4° C. overnight
  intact glucoamylase (ca. 70 kDa): 100%
Aspergillopepsin I; incubation 32° C. overnight
  intact glucoamylase (ca. 70 kDa): 100%
Aspergillopepsin I; proteases (aspergillopepsin I, aorsin)
  SDS-PAGE result after protease treatment: only showed one band corresponding to the intact molecule
Host proteases
  cleavage by host proteases during fermentation: yielded only intact molecule
Host proteases; culture supernatant, 32° C., 1 week
  intact glucoamylase (ca. 70 kDa): 100%
[1]
  Relative specific activity AGU/mg: 102%
[2]; Table 14a, 50 mM Acetate pH 4,5
  Tm (Deg. Celsius) +/−0.4: 80.3 Deg. Celsius
[2]; Table 14b, Acarbose: + (200 ppm)
  Tm (Deg. Celsius) +/−0.4: 86.9 Deg. Celsius
[2]; Table 14b, Acarbose: −
  Tm (Deg. Celsius) +/−0.4: 79.5 Deg. Celsius
[3]; pH 4.0, 50 mM Sodium Acetate
  DSC Td (° C.) @ pH 4.0: 82.1 °C
[3]; pH 4.8, 50 mM Sodium Acetate
  DSC Td (° C.) @ pH 4.8: 83.4 °C
protease
  sensitivity to protease degradation relative to the parent: reduced sensitivity to protease degradation relative to the parent
